Reference: the supplement of paper PMC9233669
This sample holds only a part of the variants without activity.

Legend:
[1] = system: biotinyl-Trp-oxazolone; assay: self-aminoacylation, catalytic enhancement (BWO) (fold over background); higher = more active; k-Seq, kA / k0A0; sequences stand for … in GGGAAUGGAUCCACAUCUACGAAUUC…UUCACUGCAGACUUGACGAAGCUG
Method in brief: (§1)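 Mutagenized RNA pools with a 21-nt variable region (0.43 μM) were reacted with each biotinyl-aminoacyl-oxazolone at 2–1250 μM for 90 minutes at room temperature, in 50 μL HEPES/NaCl/KCl/MgCl2/CaCl2 buffer containing 5% acetonitrile at pH 6.9–7.0. RNA captured on streptavidin was quantified by triplicate qPCR and by Illumina sequencing. The fraction reacted for each sequence was fit to a pseudo-first-order model with bootstrapping, and catalytic enhancement is the median kA divided by the uncatalyzed rate, taken as the low-activity peak of a bimodal Gaussian fit.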

[2] = system: biotinyl-Leu-oxazolone; assay: self-aminoacylation, catalytic enhancement (BLO) (fold over background); higher = more active; k-Seq, kA / k0A0; sequences stand for … in GGGAAUGGAUCCACAUCUACGAAUUC…UUCACUGCAGACUUGACGAAGCUG
Method in brief: as §1

[3] = system: biotinyl-Val-oxazolone; assay: self-aminoacylation, catalytic enhancement (BVO) (fold over background); higher = more active; k-Seq, kA / k0A0; sequences stand for … in GGGAAUGGAUCCACAUCUACGAAUUC…UUCACUGCAGACUUGACGAAGCUG
Method in brief: as §1

[4] = system: biotinyl-Met-oxazolone; assay: self-aminoacylation, catalytic enhancement (BMO) (fold over background); higher = more active; k-Seq, kA / k0A0; sequences stand for … in GGGAAUGGAUCCACAUCUACGAAUUC…UUCACUGCAGACUUGACGAAGCUG
Method in brief: as §1

[5] = system: biotinyl-Phe-oxazolone; assay: self-aminoacylation, catalytic enhancement (BFO) (fold over background); higher = more active; k-Seq, kA / k0A0; sequences stand for … in GGGAAUGGAUCCACAUCUACGAAUUC…UUCACUGCAGACUUGACGAAGCUG
Method in brief: as §1

[6] = system: biotinyl-Ile-oxazolone; assay: self-aminoacylation, catalytic enhancement (BIO) (fold over background); higher = more active; k-Seq, kA / k0A0; sequences stand for … in GGGAAUGGAUCCACAUCUACGAAUUC…UUCACUGCAGACUUGACGAAGCUG
Method in brief: as §1

Sequence | self-aminoacylation [1] | self-aminoacylation [2] | self-aminoacylation [3] | self-aminoacylation [4] | self-aminoacylation [5] | self-aminoacylation [6]
CCACAAUUCAAGCAAUCGGUG [Fam1B.1 aminoacylation ribozyme variant] | 8.78 | 12.3 | 5.99 | 8.06 | 60.3 | 6.36
GUUACCCUGUUCAUCGAGUGA [Fam2.1 aminoacylation ribozyme variant] | 8.4 | 7.51 | 3.5 | 7 | 37.5 | 3.34
CCCCACAUCAAGCAAUCGGUC [Fam1B.1 aminoacylation ribozyme variant] | 2.47 | 1.63 | 1.5 | 1.22 | 3.1 | 1.67
CCACGCUUCAAGCAAUCGCUC [Fam1B.1 aminoacylation ribozyme variant] | 1.13 | 0.929 | 1.42 | 0.927 | 0.605 | 0.955
AUAACCCUGGUCAUCGAGUUA [Fam2.1 aminoacylation ribozyme variant] | 1.12 | 2.86 | 1.34 | 2.5 | 4.86 | 1.7
AAGUUUGCUUAUAGUUGCAAG [Fam3.1 aminoacylation ribozyme variant] | 0.591 | 0.894 | 0.987 | 0.919 | 0.81 | 0.877
AUUACCCUAAUCAUCGAGUGA [Fam2.1 aminoacylation ribozyme variant] | 7.8 | 6.87 | 3.39 | 6.83 | 19.8 | 3.28
AGUCACCUAAGUCAUCGGGUG [Fam2.2 aminoacylation ribozyme variant] | 6.74 | 6.89 | 4.5 | 6.86 | 69.3 | 4.94
AAGCUUGCUAGUAGUCGCAAG [Fam3.1 aminoacylation ribozyme variant] | 0.908 | 1.43 | 1.33 | 1.89 | 2.3 | 1.48
AUUCAACUAGGUCAUCGGGGG [Fam2.2 aminoacylation ribozyme variant] | 2.56 | 1.86 | 1.66 | 1.59 | 0.813 | 1.75
CUACUUCAAUCCAUCGGUCUG [Fam1A.1 aminoacylation ribozyme variant] | 0.728 | 0.737 | 0.821 | 0.738 | 0.866 | 0.857
ACGUUUUCUAAUAGUCGCAAG [Fam3.1 aminoacylation ribozyme variant] | 1.55 | 1.67 | 1.53 | 1.59 | 2.79 | 1.75
CUACUUCAAACCAUCGGUCUG [Fam1A.1 aminoacylation ribozyme variant] | 0.673 | 0.661 | 0.833 | 0.702 | 0.956 | 0.794
CCUCACUUCAAGCAAUAGGUC [Fam1B.1 aminoacylation ribozyme variant] | 0.622 | 0.553 | 0.592 | 0.468 | 1.26 | 0.573
CCAGACUUCAAGCAAUCGCUC [Fam1B.1 aminoacylation ribozyme variant] | 1.54 | 2.71 | 2.11 | 2.06 | 5.36 | 2.23
CUUCACCUAGGUCAUCGAGUG [Fam2.2 aminoacylation ribozyme variant] | 4.55 | 7.37 | 4.22 | 5.78 | 9.18 | 4.29
AUUAACCUAGGCCAUCGGGUG [Fam2.2 aminoacylation ribozyme variant] | 3.52 | 4.62 | 2.45 | 3.21 | 15.1 | 2.31
AUUCACCCAGGUGAUCGGGUG [Fam2.2 aminoacylation ribozyme variant] | 4.5 | 3.44 | 3.59 | 4.45 | 25.7 | 3.64
AAGUUGGCUAUUAGUCGCAAG [Fam3.1 aminoacylation ribozyme variant] | 1.85 | 1.62 | 1.49 | 1.36 | 1.55 | 2
CCACACUUCAAGAAAUCGUUC [Fam1B.1 aminoacylation ribozyme variant] | 0.399 | 0.529 | 0.602 | 0.482 | 0.735 | 0.472
CCACACUUCGAGCAAUCGUUC [Fam1B.1 aminoacylation ribozyme variant] | 0.469 | 0.493 | 0.569 | 0.412 | 0.683 | 0.516

Sequence | self-aminoacylation [1] | self-aminoacylation [2] | self-aminoacylation [3] | self-aminoacylation [4] | self-aminoacylation [5] | self-aminoacylation [6]
CCACUUCAAACAGUCGGUCUG [Fam1A.1 aminoacylation ribozyme variant] | 1.54 | 0.89 | 1.39 | 1.09 | 0.637 | 1.19
AUUCACCUAGCUCAUCGGCUG [Fam2.2 aminoacylation ribozyme variant] | 1.25 | 2.05 | 1.96 | 1.92 | 3.23 | 1.67
UUUCUCCUAGGUCAUCGGGUG [Fam2.2 aminoacylation ribozyme variant] | 8.02 | 9.78 | 5.4 | 7.74 | 32.5 | 5.35
AUUAACCUGGUUAUCGAGUGA [Fam2.1 aminoacylation ribozyme variant] | 10.7 | 9.67 | 3.81 | 8.32 | 41.7 | 4.13
AUUCACAGAGGUCAUCGGGUG [Fam2.2 aminoacylation ribozyme variant] | 6.32 | 7.94 | 5.02 | 6.99 | 45.9 | 4.48
AUUGAGCUAGGUCAUCGGGUG [Fam2.2 aminoacylation ribozyme variant] | 5.57 | 5.61 | 3.55 | 3.78 | 26.6 | 3.41
AAUCACCUAGGUCACCGGGUG [Fam2.2 aminoacylation ribozyme variant] | 6.06 | 5.27 | 4.04 | 4.08 | 21.8 | 4.26
ACUACCCCGGUCAUCGAGUGA [Fam2.1 aminoacylation ribozyme variant] | 5.9 | 5.9 | 2.87 | 5.95 | 30.8 | 3.29
CCACACUUCAAGCAAUUGGGC [Fam1B.1 aminoacylation ribozyme variant] | 2.98 | 2.16 | 1.98 | 2.12 | 1 | 1.79
AAUUUUGCUAAUAGUUGCAAG [Fam3.1 aminoacylation ribozyme variant] | 1.75 | 1.63 | 1.53 | 1.54 | 2.06 | 1.73
UUUACCUUGGUCAUCGAGUGA [Fam2.1 aminoacylation ribozyme variant] | 8.55 | 5.86 | 4.04 | 5.9 | 18.6 | 3.93
AUUAACCUGGUCAUCAAGUGA [Fam2.1 aminoacylation ribozyme variant] | 3.18 | 2.94 | 1.85 | 3.1 | 4.41 | 1.76
CUACACUUCACGCAAUCGGUC [Fam1B.1 aminoacylation ribozyme variant] | 0.895 | 0.758 | 0.888 | 0.777 | 0.68 | 0.801
AUUACCCUGGUCAUCAGGUGA [Fam2.1 aminoacylation ribozyme variant] | 5.53 | 4.45 | 3.03 | 5.07 | 29.8 | 2.6
CUACUUCAAACAGUCGGUCUA [Fam1A.1 aminoacylation ribozyme variant] | 0.576 | 0.817 | 0.893 | 0.856 | 0.734 | 0.938
AUUGACCUAGGUCAUCGGGUG [Fam2.2 aminoacylation ribozyme variant] | 31.1 | 58.8 | 17.4 | 43.8 | 337 | 20.6
CUACUUCAAACCAUUGGUCUG [Fam1A.1 aminoacylation ribozyme variant] | 0.564 | 0.782 | 0.891 | 0.726 | 1.03 | 0.883
AAGGUUGCUAUUAGUCGCAAG [Fam3.1 aminoacylation ribozyme variant] | 1.53 | 1.56 | 1.18 | 1.3 | 2.24 | 1.66
AUAACCCUGGUCAUCGCGUGA [Fam2.1 aminoacylation ribozyme variant] | 18.7 | 18.2 | 7.96 | 16 | 103 | 6.85
CUACUUCAAAGAAUCGGUCUG [Fam1A.1 aminoacylation ribozyme variant] | 4.78 | 0.883 | 0.76 | 0.759 | 6.52 | 0.777
AAUUUUGCUAAUAGCCGCAAG [Fam3.1 aminoacylation ribozyme variant] | 1.31 | 1.49 | 1.44 | 1.33 | 1.7 | 1.74
